Measured values published in patent publication US20260242507A1 (KITE PHARMA, published 2026).

T1: human GPC5 overexpressed on K562 cells (human) (UniProt P78333)
T1 sequence (looked up): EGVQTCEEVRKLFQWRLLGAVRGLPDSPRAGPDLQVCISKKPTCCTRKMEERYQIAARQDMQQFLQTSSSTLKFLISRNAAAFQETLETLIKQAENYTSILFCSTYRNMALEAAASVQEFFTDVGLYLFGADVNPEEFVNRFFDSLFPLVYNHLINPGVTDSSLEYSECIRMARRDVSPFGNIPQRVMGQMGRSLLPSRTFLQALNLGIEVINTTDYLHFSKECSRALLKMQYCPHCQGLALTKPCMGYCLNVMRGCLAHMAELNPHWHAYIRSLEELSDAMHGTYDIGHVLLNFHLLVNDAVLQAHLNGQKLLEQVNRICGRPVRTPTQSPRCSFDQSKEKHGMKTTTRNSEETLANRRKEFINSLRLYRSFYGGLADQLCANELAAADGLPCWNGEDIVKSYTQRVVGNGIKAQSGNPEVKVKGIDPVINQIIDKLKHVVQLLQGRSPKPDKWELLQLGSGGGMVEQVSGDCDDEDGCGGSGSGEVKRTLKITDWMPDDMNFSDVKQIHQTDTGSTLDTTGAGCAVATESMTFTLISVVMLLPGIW


Key:
[1] = biological target: T2, recombinant human GPC3(Q25-H559)-6xHis (human, UniProt P51654 25-559); experiment: BLI (Octet Red96), scFv mFc captured on an AMC biosensor, rhGPC3 lot 2 at a single 500 nM concentration, 1:1 model
T2 construct: range 25-559; also called rhGPC3; RhGPC3
T2 sequence (P51654 other isoform, or with tags, fused parts or gaps limits assumed, form in doubt): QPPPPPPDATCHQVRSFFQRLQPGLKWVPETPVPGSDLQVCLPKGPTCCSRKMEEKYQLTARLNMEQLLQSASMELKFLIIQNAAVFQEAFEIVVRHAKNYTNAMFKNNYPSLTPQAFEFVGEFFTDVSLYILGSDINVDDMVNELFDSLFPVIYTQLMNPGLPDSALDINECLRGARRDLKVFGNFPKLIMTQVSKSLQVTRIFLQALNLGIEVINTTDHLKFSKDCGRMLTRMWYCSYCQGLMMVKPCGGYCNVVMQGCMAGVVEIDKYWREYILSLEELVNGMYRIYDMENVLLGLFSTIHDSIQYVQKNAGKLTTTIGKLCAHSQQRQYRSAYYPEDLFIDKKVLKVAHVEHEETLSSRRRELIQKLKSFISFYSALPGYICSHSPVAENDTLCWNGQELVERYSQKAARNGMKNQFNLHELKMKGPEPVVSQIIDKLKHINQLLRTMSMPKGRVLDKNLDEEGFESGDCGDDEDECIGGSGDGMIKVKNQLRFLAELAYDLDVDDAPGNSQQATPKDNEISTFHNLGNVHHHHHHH

[2] = biological target: T1, human GPC5 overexpressed on K562 cells (human); experiment: cell-based or functional assay
[3] = biological target: mouse GPC3 overexpressed on K562 cells (mouse) (UniProt Q8CFZ4); experiment: cell-based or functional assay
mouse GPC3 overexpressed on K562 cells (mouse), sequence (Q8CFZ4 25-579): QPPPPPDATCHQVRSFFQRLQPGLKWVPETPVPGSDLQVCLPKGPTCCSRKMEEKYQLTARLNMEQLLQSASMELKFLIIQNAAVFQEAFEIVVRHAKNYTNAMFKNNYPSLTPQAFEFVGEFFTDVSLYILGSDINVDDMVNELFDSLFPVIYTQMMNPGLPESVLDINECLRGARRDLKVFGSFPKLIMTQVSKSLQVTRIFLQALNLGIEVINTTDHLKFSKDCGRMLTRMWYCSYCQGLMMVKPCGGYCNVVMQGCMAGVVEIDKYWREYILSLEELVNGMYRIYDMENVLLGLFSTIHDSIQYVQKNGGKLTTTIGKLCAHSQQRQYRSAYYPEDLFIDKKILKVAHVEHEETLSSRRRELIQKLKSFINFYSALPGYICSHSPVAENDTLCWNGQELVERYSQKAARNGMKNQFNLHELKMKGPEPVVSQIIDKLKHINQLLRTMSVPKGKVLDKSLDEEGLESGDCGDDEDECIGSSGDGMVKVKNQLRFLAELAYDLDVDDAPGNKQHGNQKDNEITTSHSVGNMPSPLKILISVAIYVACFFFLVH

[4] = biological target: human GPC3 (glypican 3), full length, on cells (human) (UniProt P51654); experiment: cell-based or functional assay
human GPC3 (glypican 3), full length, on cells (human), sequence (P51654 25-554 limits assumed): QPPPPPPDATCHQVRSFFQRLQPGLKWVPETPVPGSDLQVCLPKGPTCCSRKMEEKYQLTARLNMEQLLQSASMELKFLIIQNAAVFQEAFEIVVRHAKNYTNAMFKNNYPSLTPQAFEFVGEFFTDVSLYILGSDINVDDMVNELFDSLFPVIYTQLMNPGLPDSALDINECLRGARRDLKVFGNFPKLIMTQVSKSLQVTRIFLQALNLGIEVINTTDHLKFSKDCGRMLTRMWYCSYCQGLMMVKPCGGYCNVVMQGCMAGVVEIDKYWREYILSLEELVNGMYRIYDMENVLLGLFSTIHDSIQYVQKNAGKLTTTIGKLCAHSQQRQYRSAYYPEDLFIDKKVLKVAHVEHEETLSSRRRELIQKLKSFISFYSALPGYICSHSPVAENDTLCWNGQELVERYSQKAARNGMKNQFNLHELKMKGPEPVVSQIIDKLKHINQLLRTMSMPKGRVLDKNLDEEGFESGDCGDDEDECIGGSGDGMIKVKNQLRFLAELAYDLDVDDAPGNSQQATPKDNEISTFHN

[5] = biological target: T2, recombinant human GPC3(Q25-H559)-6xHis; experiment: BLI (Octet Red96), scFv-Fc captured on AMC biosensors, rhGPC3 lot 2 as analyte, 1:1 model, global fit
Experimental: (§1) A kinetics constant for mAb1-1 scFv mFc binding to its target, GPC3, was determined using a Sartorius Octet Red96 with AMC biosensors. mAb1-1 scFv-Fc was diluted to 2 ug/mL and captured onto 7 AMC biosensor tips under agitation. One biosensor was left blank as a reference. Two lots of recombinant human GPC3(Q25-H559)-6×His (rhGPC3) at 464.3, 154.8, 51.59, 17.2, 5.73, 1.911 and 0 nM were used as analytes. The association phase was measured for 90 sec and the dissociation was measured for 120 sec. All measurements were corrected for baseline drift by subtracting a control sensor exposed to running buffer only. The data were analyzed using a 1:1 interaction model with global fitting for each analyte lot separately, using Octet analysis software.

[6] = biological target: T2, recombinant human GPC3(Q25-H559)-6xHis; experiment: BLI (Octet Red96), scFv-Fc captured on AMC biosensors, rhGPC3 lot 1 as analyte, 1:1 model, global fit
Experimental: as §1

| Molecule | % dead target cells, flow cytometry, 48h, K562-human GPC5 [2] [%] | % dead target cells, flow cytometry, 48h, K562-mouse GPC3 [3] [%] | % cytolysis of Hep3B at 164h, xCELLigence, 500 CAR T cells, Donor 1 [4] [%] | % cytolysis of Hep3B at 164h, xCELLigence, 500 CAR T cells, Donor 2 [4] [%] | % dead target cells, flow cytometry, 48h, Hep3B [4] [%] | other results |
| --- | --- | --- | --- | --- | --- | --- |
| YP7 scFv mFc (Fc fusion) |  |  |  |  |  | Kd [1]: 8.73 nM; koff [1]: 0.000675 s⁻¹; kon [1]: 77300 M⁻¹ s⁻¹ |
| hmAb1-2 CAR (protein, part only; not given: hinge, transmembrane and signaling domains, part only) chain, part: QVQLVQSGAEVKKPGASVKVSCKASGYTFTDYYIHWVRQAPGQGLEWMGEIYPGSGNTYYAQKFQGRVTMTRDTSTSTVYMELSSLRSEDTAVYYCARGNDYDAWFVYWGQGTLVTVSSGSTSGSGKPGSGEGSTKGDIVMTQSPDSLAVSLGERATINCKSSQSLLNSGTRKNYLAWYQQKPGQPPKLLIYWASIRESGVPDRFSGSGSGTDFTLTISSLQAEDVAVYYCKQSYSLYTFGQGTKLEIK | 18.2 | 48.3 | 95.7 | 91.3 | 89.4 |  |
| hmAb1-3 CAR (protein, part only; not given: hinge, transmembrane and signaling domains, part only) chain, part: QVQLVQSGAEVKKPGASVKVSCKTSGYTFTDYYIHWVRQAPGQGLEWMGEIYPGSGNTYYAQKFQGRVTMTADTSTSTAYMELSSLRSEDTAVYYCARGNDYDAWFVYWGQGTLVTVSSGSTSGSGKPGSGEGSTKGDIVMTQSPDSLAVSLGERATINCKSSQSLLNSGTRKNYLAWYQQKPGQPPKLLIYWASIRESGVPDRFSGSGSGTDFTLTISSLQAEDVAVYYCKQSYSLYTFGQGTKLEIK | 16.3 | 50.5 | 97.1 | 89.4 | 89.9 |  |
| mAb1-1_DNR2 CAR (mAb1-1 CAR co-expressed with TGFbDNR2) (protein, part only; not given: CAR signaling domains and DN TGFbR2, part only) chain, part: QVQLVQSGAEVKKPGASVKVSCKTSGYTFTDYYIHWVRQAPGQGLEWMGEIYPGSGNTYYAQKFQGRVTMTADTSTSTAYMELSSLRSEDTAVYYCARGNDYDAWFVYWGQGTLVTVSSGSTSGSGKPGSGEGSTKGDIVMTQSPDSLAVSLGERVTMNCKSSQSLLNSGTRKNYLAWYQQKPGQPPKLLIYWASIRESGVPDRFSGSGSGTDFTLTISSVQAEDVAVYYCKQSYSLYTFGQGTKLEIK |  |  |  |  |  | % cytolysis, xCELLigence, Hep3B, High E:T (1,000 CAR T cells) [4]: 100%; % cytolysis, xCELLigence, Hep3B, Low E:T (500 CAR T cells) [4]: 99%; % cytolysis, xCELLigence, Huh7, High E:T (10,000 CAR T cells) [4]: 100%; % cytolysis, xCELLigence, Huh7, Low E:T (500 CAR T cells) [4]: 44%; IFNg secretion after 24 h coculture with Hep3B, Luminex, replicate 1 [4]: 37700 pg/mL; IFNg secretion after 24 h coculture with Hep3B, Luminex, replicate 2 [4]: 39400 pg/mL; IFNg secretion after 24 h coculture with Hep3B, Luminex, replicate 3 [4]: 44500 pg/mL |
| hmAb1-1 CAR (protein, part only; not given: hinge, transmembrane and signaling domains, part only) chain, part: QVQLVQSGAEVKKPGASVKVSCKTSGYTFTDYYIHWVRQAPGQGLEWMGEIYPGSGNTYYAQKFQGRVTMTADTSTSTAYMELSSLRSEDTAVYYCARGNDYDAWFVYWGQGTLVTVSSGSTSGSGKPGSGEGSTKGDIVMTQSPDSLAVSLGERVTMNCKSSQSLLNSGTRKNYLAWYQQKPGQPPKLLIYWASIRESGVPDRFSGSGSGTDFTLTISSVQAEDVAVYYCKQSYSLYTFGQGTKLEIK | 17.7 | 53.9 | 96.4 | 93.4 | 91.1 |  |
| mAb1-1 scFv-Fc (single chain variable fragment fused to a murine IgG2A fragment crystallizable domain) (Fc fusion, also called mAb1-1 scFv mFc; not shown: murine IgG2A fragment crystallizable (Fc) domain) QVQLVQSGAEVKKPGASVKVSCKTSGYTFTDYYIHWVRQAPGQGLEWMGEIYPGSGNTYYAQKFQGRVTMTADTSTSTAYMELSSLRSEDTAVYYCARGNDYDAWFVYWGQGTLVTVSSGSTSGSGKPGSGEGSTKGDIVMTQSPDSLAVSLGERVTMNCKSSQSLLNSGTRKNYLAWYQQKPGQPPKLLIYWASIRESGVPDRFSGSGSGTDFTLTISSVQAEDVAVYYCKQSYSLYTFGQGTKLEIK |  |  |  |  |  | Kd [5]: 35.2 nM; koff [5]: 0.00785 s⁻¹; kon [5]: 223000 M⁻¹ s⁻¹; Kd [6]: 32.7 nM; koff [6]: 0.00712 s⁻¹; kon [6]: 218000 M⁻¹ s⁻¹ |

Now from value to molecule, other results behind:

| % dead target cells, flow cytometry, 48h, K562-human GPC5 [2] [%] | % dead target cells, flow cytometry, 48h, K562-mouse GPC3 [3] [%] | % cytolysis of Hep3B at 164h, xCELLigence, 500 CAR T cells, Donor 1 [4] [%] | % cytolysis of Hep3B at 164h, xCELLigence, 500 CAR T cells, Donor 2 [4] [%] | % dead target cells, flow cytometry, 48h, Hep3B [4] [%] | Molecule | other results |
| --- | --- | --- | --- | --- | --- | --- |
| 18.5 | 52.9 | 99.3 | 95 | 90.5 | hmAb1-5 CAR (protein, part only; not given: hinge, transmembrane and signaling domains, part only) chain, part: QVQLVQSGAEVKKPGASVKVSCKTSGYTFTDYYIHWVRQAPGQGLEWIGEIYPGSGNTYYAQKFQGRATLTADTSTSTAYMEFSSLRSEDTAVYYCARGNDYDAWFVYWGQGTLVTVSSGSTSGSGKPGSGEGSTKGDIVMTQSPDSLAVSLGERVTMNCKSSQSLLNSGTRKNYLAWYQQKPGQPPKLLIYWASIRESGVPDRFSGSGSGTDFTLTISSVQAEDVAVYYCKQSYSLYTFGQGTKLEIK |  |
| 16.4 | 52.7 | 94.9 | 89.6 | 89.8 | hmAb1-4 CAR (protein, part only; not given: hinge, transmembrane and signaling domains, part only) chain, part: QVQLVQSGAEVKKPGASVKVSCKTSGYTFTDYYIHWVRQAPGQGLEWIGEIYPGSGNTYYAQKFQGRATLTADTSTSTAYMEFSSLRSEDTAVYYCARGNDYDAWFVYWGQGTLVTVSSGSTSGSGKPGSGEGSTKGDIVMTQSPDSLAVSLGERATINCKSSQSLLNSGTRKNYLAWYQQKPGQPPKLLIYWASIRESGVPDRFSGSGSGTDFTLTISSLQAEDVAVYYCKQSYSLYTFGQGTKLEIK |  |
